Holding throughout (assay): enzyme inhibition assay
In experiment [1] the target is MMP-10 catalytic domain (MMP-10CAT) (UniProt P09238 99-263).
The target in experiment [2] is MMP-14 catalytic domain (MMP-14CAT) (UniProt P50281 114-287).
Experiment [3] deals with T1, human MMP-9 catalytic domain (MMP-9CAT), residues 107-215, 391-443 (human, UniProt P14780 107-215; P14780 391-443).
T1 chain (looked up): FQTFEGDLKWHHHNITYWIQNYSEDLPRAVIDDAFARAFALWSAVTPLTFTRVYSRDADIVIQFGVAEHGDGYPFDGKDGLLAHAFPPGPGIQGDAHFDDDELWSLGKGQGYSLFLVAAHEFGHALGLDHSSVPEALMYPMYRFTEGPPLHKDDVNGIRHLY

Experiment [4] addresses T2, MMP-1 catalytic domain (MMP-1CAT) (UniProt P03956 100-269).
T2 sequence (looked up): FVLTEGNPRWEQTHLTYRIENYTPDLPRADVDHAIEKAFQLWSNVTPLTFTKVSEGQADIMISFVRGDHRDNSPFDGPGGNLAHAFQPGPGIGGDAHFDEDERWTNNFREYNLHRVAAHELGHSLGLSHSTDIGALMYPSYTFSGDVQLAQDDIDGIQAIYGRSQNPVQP

MMP-10 catalytic domain (MMP-10CAT), sequence (P09238 99-263): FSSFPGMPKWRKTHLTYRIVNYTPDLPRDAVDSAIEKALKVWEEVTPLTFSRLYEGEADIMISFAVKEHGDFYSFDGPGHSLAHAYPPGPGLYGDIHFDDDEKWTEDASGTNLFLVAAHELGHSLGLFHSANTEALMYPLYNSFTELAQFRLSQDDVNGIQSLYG

B1: N-terminal domain of TIMP-2 (N-TIMP2), wild type (domain or fragment, UniProt P16035 27-152, looked up)
chain: CSCSPVHPQQAFCNADVVIRAKAVSEKEVDSGNDIYGNPIKRIQYEIKQIKMFKGPEKDIEFIYTAPSSAVCGVSLDVGGKKEYLIAGKAEGDGKMHITLCDFIVPWDTLSTTQKKSLNHRYQMGC
Turning to B1, the Ki in experiment [1] was 4.3 nM; in experiment [2], 2.52 nM; in experiment [3] it was 0.12 nM; in experiment [4] it was 0.25 nM.

As usually defined, the Ki is the dissociation constant of the complex between target and ligand, obtained from inhibition or displacement. The low end stands for tighter binding, the high end for weaker binding.

(Values after publication PMC5903968 (FEBS letters, 2018).)
